IntAct's records for PubMed 17711851

B1: Golgi resident protein GCP60 (Homo sapiens), Q9H3P7 (parent)
chain: MAAVLNAERLEVSVDGLTLSPDPEERPGAEGAPLLPPPLPPPSPPGSGRGPGASGEQPEPGEAAAGGAAEEARRLEQRWGFGLEELYGLALRFFKEKDGKAFHPTYEEKLKLVALHKQVLMGPYNPDTCPEVGFFDVLGNDRRREWAALGNMSKEDAMVEFVKLLNRCCHLFSTYVASHKIEKEEQEKKRKEEEERRRREEEERERLQKEEEKRRREEEERLRREEEERRRIEEERLRLEQQKQQIMAALNSQTAVQFQQYAAQQYPGNYEQQQILIRQLQEQHYQQYMQQLYQVQLAQQQAALQKQQEVVVAGSSLPTSSKVNATVPSNMMSVNGQAKTHTDSSEKELEPEAAEEALENGPKESLPVIAAPSMWTRPQIKDFKEKIQQDADSVITVGRGEVVTVRVPTHEEGSYLFWEFATDNYDIGFGVYFEWTDSPNTAVSVHVSESSDDDEEEEENIGCEEKAKKNANKPLLDEIVPVYRRDCHEEVYAGSHQYPGRGVYLLKFDNSYSLWRSKSVYYRVYYTR
partner: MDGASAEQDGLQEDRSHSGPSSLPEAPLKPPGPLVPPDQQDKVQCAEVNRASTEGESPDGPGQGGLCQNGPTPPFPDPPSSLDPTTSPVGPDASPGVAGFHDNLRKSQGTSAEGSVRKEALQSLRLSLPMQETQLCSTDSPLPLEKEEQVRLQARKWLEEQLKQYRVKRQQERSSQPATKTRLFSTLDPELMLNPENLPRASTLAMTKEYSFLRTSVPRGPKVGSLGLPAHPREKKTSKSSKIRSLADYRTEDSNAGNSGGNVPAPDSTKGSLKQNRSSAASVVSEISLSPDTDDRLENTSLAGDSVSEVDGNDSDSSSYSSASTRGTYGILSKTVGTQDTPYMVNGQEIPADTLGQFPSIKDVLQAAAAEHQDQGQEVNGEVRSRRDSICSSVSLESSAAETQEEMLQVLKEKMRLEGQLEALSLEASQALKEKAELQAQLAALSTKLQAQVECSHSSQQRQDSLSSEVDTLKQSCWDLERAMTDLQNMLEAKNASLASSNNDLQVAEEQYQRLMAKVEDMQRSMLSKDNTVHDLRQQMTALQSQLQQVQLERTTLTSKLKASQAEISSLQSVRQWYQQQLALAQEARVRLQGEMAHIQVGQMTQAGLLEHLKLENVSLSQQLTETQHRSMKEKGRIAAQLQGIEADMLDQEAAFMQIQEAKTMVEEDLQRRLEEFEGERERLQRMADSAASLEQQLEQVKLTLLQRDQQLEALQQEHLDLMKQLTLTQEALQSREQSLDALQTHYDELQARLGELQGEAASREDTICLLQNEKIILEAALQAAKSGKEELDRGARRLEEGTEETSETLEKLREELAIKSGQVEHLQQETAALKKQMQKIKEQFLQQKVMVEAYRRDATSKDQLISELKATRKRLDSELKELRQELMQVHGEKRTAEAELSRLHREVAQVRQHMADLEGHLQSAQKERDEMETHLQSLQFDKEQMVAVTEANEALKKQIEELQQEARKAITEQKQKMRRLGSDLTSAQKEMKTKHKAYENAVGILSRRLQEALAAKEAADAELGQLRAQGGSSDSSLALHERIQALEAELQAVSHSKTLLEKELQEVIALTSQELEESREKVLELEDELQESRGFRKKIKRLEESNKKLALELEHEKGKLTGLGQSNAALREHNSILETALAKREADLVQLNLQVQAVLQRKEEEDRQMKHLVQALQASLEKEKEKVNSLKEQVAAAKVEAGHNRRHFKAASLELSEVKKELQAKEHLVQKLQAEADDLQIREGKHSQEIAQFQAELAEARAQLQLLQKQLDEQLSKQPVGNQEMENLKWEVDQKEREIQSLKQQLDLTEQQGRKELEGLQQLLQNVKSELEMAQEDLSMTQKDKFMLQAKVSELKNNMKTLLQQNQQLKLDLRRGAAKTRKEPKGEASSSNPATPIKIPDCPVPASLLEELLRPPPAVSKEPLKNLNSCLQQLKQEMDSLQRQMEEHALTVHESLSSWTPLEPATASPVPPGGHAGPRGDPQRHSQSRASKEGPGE

Variants of: B1
Conditions: with goga3_human GOLGA3, Q08378

| effect of a mutation on the interaction | Variant |
| --- | --- |
| disrupting interaction | MAAVLNAERLEVSVDGLTLSPDPEERPGAEGAPLLPPPLPPPSPPGSGRGPGASGEQPEPGEAAAGGAAEEARRLEQRWGFGLEELYGLALRFFKEKDGKAFHPTYEEKLKLVALHKQVLMGPYNPDTCPEVGFFDVLGNDRRREWAALGNMSKEDAMVEFVKLLNRCCHLFSTYVASHKIEKEEQEKKRKEEEERRRREEEERERLQKEEEKRRREEEERLRREEEERRRIEEERLRLEQQKQQIMAALNSQTAVQFQQYAAQQYPGNYEQQQILIRQLQEQHYQQYMQQLYQVQLAQQQAALQKQQEVVVAGSSLPTSSKVNATVPSNMMSVNGQAKTHTDSSEKELEPEAAEEALENGPKESLPVIAAPSMWTRPQIKDFKEKIQQDADSVITVGRGEVVTVRVPTHEEGSYLFWEFATDNYDIGFGVYFEWTDSPNTAVSVHVSESSDDDEEEEENIGSEEKAKKNANKPLLDEIVPVYRRDCHEEVYAGSHQYPGRGVYLLKFDNSYSLWRSKSVYYRVYYTR [C463S] |
